Laboratory results from a protein production outcome set (Wang et al. 2014).

Assay: label from the status in PepcDB records

Sequence	protein production
MENGFFVKINYRIYTTFSEKHGIILSIISKKENPMAIYFGTYTKRESKGIYKANFDSETGQLSNLELVTEEPNPTYLAFDKAGHLYSVGAENGLGGIAAFNTDYTLLNHVVSEGAPLCYVAVDEARDLVYGSNFHKGQLLVYKRLADGSLELADVAQHEGSGPHENQASAHVHFSDLTPDKFLVTCDLGCDQVVTYKVSDQGKVEKIATYQAAPGSGPRHIVFHTVAKIAYLICELNSTIEVLIYDGWGQFEHLQTVSTLPEDHTGFNGTAAIRITKDGKFIYGSNRGNDSIAVYKTLADASLELVEIVPTNGKTPRDFTLSPDEKHLIVVHQDSDNATVFKRDAENGCLTELSHDFYVPEAVCVTFL	failed
GRRFVMVPGIGGSGPEHWQSHWESLYPNTLRIEPNSWDEPDLADWFAALDRAVAAAPYPPVLVCHSLGCLLFAHWRAASSRAIAAAFLVAVPDPSGPAFPAQAKAFGALPATGFGERPVLAVASENDPYDPEASAIAWAVRQGAWPRRLGPRGHLNEASNIGAWPEGQELLADFLDKIGE	failed
MRPVPPPPDRSGRCFASPRRSDLSPQAGRGEEPLAAPIEPSLPPSRPIPGRPAPPGTFAMDWTWYLFRFDGRINRALLWQALLIVALLAGLLEIVGQVIGILGGTRSTLKLAIDLDFDFGLDDLFKLVDPRASRSLASADRATSILKASGMALFFWIYLATTIKRLHDRDRSGWWIVPFFVVPGLFSQFADLLPNSNWMLPFSLAVSILWLWGLVEMFCRPGTSGHNRFGPDPLADFEDSSAASPAQGWDQSREIEIVPPNASPPGGMHVKRGA	failed
MNTDLTLVIMAAGLGSRFGGDKQLASLGPSGEPMLVLSILSAIRSGFQRAVLVIRPELEAELTGILTQFLPANFEYHFCYQSLSDLPQDAKLADLSHRLKPWGTAHALWCARDWVKGPMAVINADDFYGDSAFASLAKGLTARPNDWMMVAYPIELTLSEHGGVNRGLCQVAQGQLRSVAEWLNIQAQDDGFVGEGPNGLAKLPLQSLVSMTCWGFSPSIFNVIKQQLTAFIEQQGQLPKSECYLPAVVQAAIEQGVPVYVDVASEPWLGVTYPQDTVWVKQKLMELLGDKTHLEHHHHHH	failed
MKKEAESLIEKEHGTNPKISRYWIQRYDLFSKYDQGIEMDEEGWYSVTPEEIAIKQAERCRGKVVIDCFSGVGAIDIDPMKIALAMNNAKVYGVANRIDFVTGDFMQLAPSLKGDVLFLSPPWGGPTYSKVESYKLDMLLPRDGGVERVDSLTHESHNMTRSMKLKKRSRLKKEVKSTIEKDNGRRHKITKYWIQRYDLFSRYDQGIEMDEEGWYSVTPEEIAIKQAQRYRGKVVIDCFSGVGGNTIQFAKVCSSVVAIDIDPVKVELAMNNAMVYGVANRVDFVIGDFIQLAPSLKGDVVFLSPPWGGPMYRDFESYNLDMLQPRDGYSLFQIAQSITPNIIMFLPRNVDLAQVEELAWLSSPPLNLEIEENFVGGRMKAVTAYFSCNAV	not failed
MPHRKNTFSSWRSRLAQKAVHAGWAWVQRTGSVTAAHPGRFRFGALGTGTRLAFPLGTVFGEPWIQVGAHCIIGEQVTLTAGLMPDLDLGPEPILRIGDGVVLGRGSHVIADTTVTIGSDCYFGPYVYVTSTNHSYDDPHQPIGKQWPRMDPVEIGPGCWIGTGAVILPGARIGRNVVVAAGAVVRGAVPDHAVVAGAPARVVRRWTPAEGWQPPLRTPAPVPIPDGITPGQLRELSKLDDEAVARLAELDDPERAAGRLAEPAAEG	failed
MSFFKLKENNTSFKTEVIAGLTTFLAMVYIIPVNSSIVGNTGMPIEALITATALITIVASAFNAFFANTPVAMSVGMGLNAYFTFAVCLGQNIAWQSALGAVFISSIIFLILSFTHFRLWVIRNIPKDLRLAICAGIGCFIAFLGLSQMGVIMHNKDTLVSIGNFKSPHVLFGIFTLALIIFFWAIKLLGAFILGVLASSIIAWIFHLDNASFPVQIFSWPNFSMENGLGAIFLQLDIKSALNITMIPIILTFFITQLFDSIGTITGVGERGKIFDDPKNGEKKLSKTLMADATGSALGAMTGTSTVTAFVESTTGVESGGRTGLTALVVAICFAFTLFLLPLFKAIPANAIYPVLVMVGILMFMEVKNIDFKDSAIAVASFFTIIMMPFTYSITTGFAFGFLSYLLVRIFKREWDKINLGIIVLSLLSLGNFLLMALQ	failed
MKQIAFIGLGHMGAPMATNLLKAGYLLNVFDLVQSAVDGLVAAGASAARSARDAVQGADVVISMLPASQHVEGLYLDDDGLLAHIAPGTLVLECSTIAPTSARKIHAAARERGLAMLDAPVSGGTAGAAAGTLTFMVGGDAEALEKARPLFEAMGRNIFHAGPDGAGQVAKVCNNQLLAVLMIGTAEAMALGVANGLEAKVLAEIMRRSSGGNWALEVYNPWPGVMENAPASRDYSGGFMAQLMAKDLGLAQEAAQASASSTPMGSLALSLYRLLLKQGYAERDFSVVQKLFDPTQGQ	not failed
MKTTRTCKINSITKEQTEALITLIRTFESAKRYSFNRLIEGESEKELIKKLQLKYLLNKRFCEDAVLQVQTILSSQKELLPVYLENNQKKLEKTLQKKMIMKVAGKTQKKFH	failed
MAKYVVTSAWPYVNHVPHLGTLIGSVLSADIYARYLRLRGRQVVFVSGSDEHGTPIELEARKKGVHPKELTDQVHEYDVKMWREYRISFDNYSRTESPVHKEFVMEFMKKLEENGYIFSQEEVLPYCERDKIFLPDRFVEGTCPYCGYEKARGDQCDECGRLLHPTELKNPRCALCGSKPVYKSTRHWFIDLRRVQDRLLKWLESHGELQDSVKKYSINWVAQGLKPRSVTRDLSWGVPAPFKGAEGKTIYVWFDALLGYVSATKELFIMRRGDPEEWKSWWWDSGTRTVYFIGKDNIPFHAIILPALFLASHDPYVLPWRISATEYLMYEGQQFSKSRRIGVWIDEALEIAPADYWRWALARMRPEARDTNFTWKEFYRIVNTELNDDIGNFVNRVLSLVRSRMSGVAPEPEDLGEHQGFVERVRRAAWAVAEDLEAIRIKRATEGILEIAREGNAYLNRTQPWKLLSQDREEGVRALSAALYAVKTLAHLLAPFTPDAADRLWSMLGLAGSVHEAVWDEWLDRPLPGGARIVRVEPLFQKLPDDFLERVDEIVEDARRRAREKRPPLLRD	failed
MNDTPDDTFVSGYLLYLLAASSEEASAQFHDHIRAQGLRVPEWRVLACLVDNDAMMITRLAKLSLMEQSRMTRIVDQMDARGLVTRVADAKDKRRVRVRLTDDGRALAESLVASARAHETRLLSALADTDAARIKGVLRTLLDVLDRPRESR	not failed
AQGQRRAPLSVVFTEPQVASVGLSLRQIEDLYADQDAANYVVGQVSFEGQGRSRVMGKNKGLLNVYADRTSGEFLGAEMFGPAAEHIGHLLAWARQQQMTVQAMLTMPFYHPVIEEGLRTALRDAQQKLA	not failed
MPITSSSETFASFFNDWLCRHRQFVQQLAHLADETTIVTPIEEESLVSNFLSHYLQYYEEKSVAMSVAGDDIYDFFSPPWLSSYEKLILWIGGFKPGMVFKLITTSVNDLTSHQIDQLESIRLETKRRERDLMRRFALLQQSVGDPLLMVPFRRIGVLRLGEGEQPEMEDAMEVLKVEMIKAMKNADQLRCVTVGKVVEVLNPRQSIKLLRAAGEFYLRLRDLGV	failed
MDYSNTYGAYGGGGFLPESPARTGGNASTRFGVGSGSSLRDQRRSLLPVRVADLVHAVHDPVTNTFVLRDENEHQSITISEGSIVKVVAYVEELREQPLDLLWLLDDRSGEMIWARMASTSSSSLAALEQSGILVRVFGQLLEVDGRRVLNVRAIRKADGEVELRYHENLCQLSKLQLIRGYPTAGNALAGASSSPASPKAGPSKAVHRSSLGSGAPKEMAQQAPGLEIPAAFPPEHFKVLKCIREETARNRDAMLTDIAQRIALSTTKVRGICDALQNEGHIYCTLDDDTFRASSS	not failed
MNQSLSPQQSPGFLFIAVSMITCLILLINVSFKIILLGGLVFAINSLICPLIAALFLFALRNCTFKEQRHLLNICLMTLYMFCIGVYVLVNLPAAEYMHDNPAYQVIFEEIPKKFFATTIAFALSFYLPHLLFCTKNDRVLSTPKQCVLLALLGGVSFFCLDFYLLFSAPHAHSFKQIFIDSFMISSLLLLIIGVVYLTFLLNDKQHKGKALIETTELTLFPIYQYLICFAVTVMLVCLACEYRIIAINKDLVLSASCIFFPITIIISSIVGELWGYQANLKLALALLAAQFIFDMLLMGSVALPSPPFFNLNPFYHYIMPRRLSAASLSLFVTFLGNAMLLHYLKYSKWKINRSLRILIANISVNSLLCLVDYSLLYGGIYPYEQIINLAVSVWQYKLLTALIALPVILWMCKILERNYSLVVQTERN	failed
MQISIKTVKGKSINLEVADSSDTIDLKINGEPTRQLVLRLGPAVLMRIFVSTIKEKTFILEVKGSDTIKKLKSMIHDQGGPPVDQQDLNHLGTKLKNNATISDYNIKPDANLVIMQNGCIC	failed
MKNNPLISIYMPTWNRQQLAIRAIKSVLRQDYSNWEMIIVDDCSTSWEQLQQYVTALNDPRITYIHNDINSGACAVRNQAIMLAQGEYITGIDDDDEWTPNRLSVFLAHKQQLVTHAFLYANDYVCQGEVYSQPASLPLYPKSPYSRRLFYKRNIIGNQVFTWAWRFKECLFDTELKAAQDYDIFLRMVVEYGEPWKVEEATQILHINHGEMQITSSPKKFSGYFHFYRKHKDKFDRASKKYQLFTLYQIRNKRMTWRTLLTLLSVRNGKRLADGIRGRLEHHHHHH	not failed
MSTETAEKPGETTPESHVFEADVARLLHMMVHSVYSDKDVFLRELVSNAADACEKLRYEAITTPGLLTSDPDPRIQLRLDADNRQLILEDNGIGMSRAELIEALGTIARSGTRAFMERIEASKADAAKTGEDAQLIGQFGVGFYSCFMVADKVDVVTRRAGETQAWIWSSDGKGSYSISEIDAESAPARGTRITLHLMEDAKDYATRARVERIVKQQSGHVPVAITLVEKPGDEPTRITEGTALWTRPKSEISSEDYADFYRGIAGQYDEPALTVHFRAEGRHEYTALAFVPGTPPFDLFDPDRKGRIKLYVKRVFITDDAELLPRYLRFVRGLVDTADLPLNVSREMIQESPILSAIRKGVTNRILTSVEKLAQNEPETYKTLWENFGAVLKEGLYEDFERRSQLLGLTRFRTTTSGDDQRSLADYLKDLKPEQDSIYYLAGSNIEQLRASPQLEGFRARGIEVLLLSDQIDSFWVMNAPEFEGKTFKSVSQGAADLAKFAKADAGADSDQDSNDQAKADIAGFLALAKEQLKDQVADVRASDRLTESPVCLVAPESGYDRQLEKILAGAGQLASTSKPVLELNADHVLVKAMAGAQHTPALQNDAIHLLYDQARILDGEKPADARAFAERMGRLLEKALRA	failed
QETGISMIGERTNSNGSKAFREAMLSGDWEKCVDIAKQQTRDGAHMLDLCVDYVGRDGTADMATLAALLATSSTLPIMIDSTEPEVIRTGLEHLGGRSIVNSVNFEDGDGPESRYQRIMKLVKQHGAAVVALTIDEEGQARTAEHKVRIAKRLIDDITGSYGLDIKDIVVDCLTFPISTGQEETRRDGIETIEAIRELKKLYPEIHTTLGLSNISFGLNPAARQVLNSVFLNECIEAGLDSAIAHSSKILPMNRIDDRQREVALDMVYDRRTEDYDPLQEFMQLFEGVSAAD	not failed
MTETGDDLATVKKPIPFLVIFKDLRHVFSRDTTGREILGIAFPAALALAADPIASLIDTAFVGRLGAVQLAAVGVSIAIFNQASRITIFPLVSLTTSFVAEEDTMEKMKEEANKANLVHAETILVQDSLEKGISSPTSNDTNQPQQPPAPDTKSNSGNKSNKKEKRTIRTASTAMILGLILGLVQAIFLIFSSKLLLGVMGVKPNSPMLSPAHKYLSIRALGAPALLLSLAMQGIFRGFKDTKTPLFATVVADVINIVLDPIFIFVLRLGIIGAAIAHVISQYFMTLILFVFLAKKVNLIPPNFGDLQFGRFLKNGLLLLARTIAVTFCQTLAAAMAARLGTTPMAAFQICLQVWLTSSLLNDGLAVAGQAILACSFAEKDYNKVTAVASRVLQMGFVLGLGLSVFVGLGLYFGAGVFSKDPAVIHLMAIGIPFIAATQPINSLAFVLDGVNFGASDFAYTAYSMVGVAAISIAAVIYMAKTNGFIGIWIALTIYMALRAITGIARMATGTGPWRFLRGRSSSSSS	failed
